T1: human CXCL13 (human, UniProt O43927 23-109)
T1 construct: also called huCXCL13; rhCXCL13
T1 sequence (looked up): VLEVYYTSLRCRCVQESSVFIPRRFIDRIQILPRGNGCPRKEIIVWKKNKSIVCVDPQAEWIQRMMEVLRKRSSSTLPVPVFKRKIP

B1: 411A11E9-VH2VL2 (Fab, V domains shown)
VH: EVQLVESGGGLVQPGGSLRLSCAASGFTFSDYYMAWVRQAPGKGLEWVASINYDGGDTYYRDSVKGRFTISRDNAKNSLYLQMNSLRAEDTAVYYCATEEDYDGSYVMDAWGQGTLVTVSS
VL: DIQMTQSPSSLSASVGDRVTITCKASQNINKELTWYQQKPGKAPKRLIYNTNILQTGVPSRFSGSGSGTEFTLTISSLQPEDFATYFCLQQSSLYTFGQGTKLEIK
notes: Humanized Fab, human gamma 1 and kappa constant domains
B2: 411A11E9-VH3VL3 (Fab, V domains shown)
VH: B1 VH with A24V
VL: B1 VL with V58I
notes: as for B1
B3: 411A11E9-VH2VL1 (Fab, V domains shown)
VH: B1 VH
VL: B1 VL with F87Y
notes: as for B1
B4: 411A11E9-VH3VL1 (Fab, V domains shown)
VH: B1 VH with A24V
VL: B1 VL with F87Y
notes: as for B1
B5: 411A11E9-VH4VL4 (Fab, V domains shown)
VH: B1 VH with A24V, I70V, T115A
VL: B1 VL with V58I, F71Y
notes: as for B1
B6: 411A11E9-VH4VL3 (Fab, V domains shown)
VH: B1 VH with A24V, I70V, T115A
VL: B1 VL with V58I
notes: as for B1
B7: 411A11E9-VH1VL1 (Fab, V domains shown)
VH: B1 VH with T98R
VL: B1 VL with F87Y
notes: as for B1
B8: 411A11E9-VH4VL1 (Fab, V domains shown)
VH: B1 VH with A24V, I70V, T115A
VL: B1 VL with F87Y
notes: as for B1
B9: 411A11E9-VH2VL3 (Fab, V domains shown)
VH: B1 VH
VL: B1 VL with V58I
notes: as for B1
B10: 411A11E9-VH1VL3 (Fab, V domains shown)
VH: B1 VH with T98R
VL: B1 VL with V58I
notes: as for B1
B11: 411A11E9-VH4VL2 (Fab, V domains shown)
VH: B1 VH with A24V, I70V, T115A
VL: B1 VL
notes: as for B1
B12: 71F4A3-VH2VL2 (Fab, V domains shown)
VH: EVQLVQSGGGLVQPGGSLRLSCAASGIDFSRYWMSWVRQAPGKGLEWVAEINPDSSTINYAPSLKDRFTISRDNAKNSLYLQMNSLRAEDTAVYYCARQDDYEYYAMDYWGQGTTVTVSS
VL: DIQMTQSPSSLSASVGDRVTITCKASQDVNTGVAWYQQKPGKAPKLLIYSASYRYTGVPSRFSGSGSGTDFTFTISSVQPEDIATYYCQQYYSTPLTFGGGTKLEIK
notes: as for B1
B13: 71F4A3-VH4VL2 (Fab, V domains shown)
VH: B12 VH with V48I, A49G, L86V
VL: B12 VL
notes: as for B1
B14: 71F4A3-VH3VL2 (Fab, V domains shown)
VH: B12 VH with A49G, L86V
VL: B12 VL
notes: as for B1
B15: 71F4A3-VH4VL1 (Fab, V domains shown)
VH: B12 VH with V48I, A49G, L86V
VL: B12 VL with V78L
notes: as for B1
B16: 21H12D9-VH1VL3 (Fab, V domains shown)
VH: QVQLVQSGAEVKKPGASVKVSCKASGYTFTDYYMNWVRQAPGQGLEWMGVINPNNGGTTYKEKFKGRVTMTRDTSISTAYMELSRLRSDDTAVYYCARDDYDAGYWGQGTLVTVSS
VL: DIQMTQSPSSVSTSVGDRVTITCKASQNVDTAVAWYQQKPGKAPKLLIYSASHRYTGVPSRFSGSGSGTDFTLTISSVQPEDFATYYCQQYTDFPLTFGQGTRLEIK
notes: Humanized Fab, human gamma 1 and kappa constant domains; also called 21VH12D9-VH1VL3
B17: 21H12D9-VH2VL3 (Fab, V domains shown)
VH: B16 VH with K12V, R72V
VL: B16 VL
notes: Humanized Fab, human gamma 1 and kappa constant domains; also called 21VH12D9-VH2VL3
B18: 21H12D9-VH3VL1 (Fab, V domains shown)
VH: B16 VH with K12V, M48I, V68A, M70L, R72V
VL: B16 VL with T13A, V78L
notes: Humanized Fab, human gamma 1 and kappa constant domains; also called 21VH12D9-VH3VL1
B19: 21H12D9-VH4VL2 (Fab, V domains shown)
VH: B16 VH with K12V, V20M, M48I, V68A, M70L, R72V, S77G, V112L
VL: B16 VL with V78L
notes: Humanized Fab, human gamma 1 and kappa constant domains; also called 21VH12D9-VH4VL2
B20: 21H12D9-VH4VL1 (Fab, V domains shown)
VH: B16 VH with K12V, V20M, M48I, V68A, M70L, R72V, S77G, V112L
VL: B16 VL with T13A, V78L
notes: Humanized Fab, human gamma 1 and kappa constant domains; also called 21VH12D9-VH4VL1
B21: 21H12D9-VH2VL1 (Fab, V domains shown)
VH: B16 VH with K12V, R72V
VL: B16 VL with T13A, V78L
notes: Humanized Fab, human gamma 1 and kappa constant domains; also called 21VH12D9-VH2VL1
B22: 21H12D9-VH3VL2 (Fab, V domains shown)
VH: B16 VH with K12V, M48I, V68A, M70L, R72V
VL: B16 VL with V78L
notes: Humanized Fab, human gamma 1 and kappa constant domains; also called 21VH12D9-VH3VL2

Broadly, the Kd is the equilibrium constant for the complex coming apart. The low end stands for tighter binding, the high end for weaker binding. For orientation: koff means the rate constant with which the complex falls apart. Low readings indicate slow dissociation, high ones fast dissociation. Broadly, the kon is the rate constant with which the complex forms. Low values mean slow association, high ones fast association.

Residue numbers refer to the chain shown, from its start.

This assay concerns the target T1, human CXCL13. In words: SPR Biacore, off-rate ranking of Fabs. (In general: SPR reads the build-up and loss of mass on a sensor chip optically.)
Consider B1, for which binding was characterised by a dissociation constant (Kd) of 1.05 nM, the dissociation rate constant (koff) came to 0.00271 s⁻¹ and the kon turned out to be 2.58e+06 M⁻¹ s⁻¹.

B2 returned a Kd of 1.01 nM, an off-rate (koff) of 0.00207 s⁻¹ and a kon of 2.05e+06 M⁻¹ s⁻¹.

Take B3: binding was characterised by a dissociation constant (Kd) of 1.19 nM, the koff came out at 0.00283 s⁻¹ and the kon came to 2.37e+06 M⁻¹ s⁻¹.

In the case of B4, binding was put at a Kd of 1.06 nM, the koff worked out at 0.00242 s⁻¹ and the on-rate constant (kon) was 2.29e+06 M⁻¹ s⁻¹.

On to B5, for which the dissociation constant (Kd) was 0.611 nM, the koff was found to be 0.00107 s⁻¹ and the kon is 1.74e+06 M⁻¹ s⁻¹.

Take B6: binding was characterised by a dissociation constant (Kd) of 1.24 nM, the koff was 0.00266 s⁻¹ and the kon was found to be 2.14e+06 M⁻¹ s⁻¹.

Consider B7, for which the Kd amounted to 1.04 nM, the off-rate constant (koff) is 0.013 s⁻¹ and the association rate constant (kon) amounted to 1.25e+07 M⁻¹ s⁻¹.

Regarding B8, the affinity, expressed as Kd, was 1.03 nM; the koff was determined as 0.00281 s⁻¹; the on-rate constant (kon) worked out at 2.73e+06 M⁻¹ s⁻¹.

The molecule B9 yielded a Kd of 1.42 nM, an off-rate constant (koff) of 0.00335 s⁻¹ and an on-rate constant (kon) of 2.36e+06 M⁻¹ s⁻¹.

Molecule B10 registered a dissociation constant Kd of 3.37 nM, a koff of 0.00176 s⁻¹ and an association rate constant (kon) of 523000 M⁻¹ s⁻¹.

Turning to B11, binding was put at a Kd of 0.944 nM, the koff was determined as 0.00196 s⁻¹ and the on-rate constant (kon) amounted to 2.08e+06 M⁻¹ s⁻¹.

On to B12, for which binding was put at a Kd of 0.607 nM, the koff worked out at 0.00137 s⁻¹ and the on-rate constant (kon) is 2.25e+06 M⁻¹ s⁻¹.

Molecule B13 yielded a dissociation constant Kd of 0.53 nM, an off-rate constant (koff) of 0.00136 s⁻¹ and an on-rate (kon) of 2.57e+06 M⁻¹ s⁻¹.

In turn, B14 displayed a Kd of 0.557 nM, a dissociation rate constant (koff) of 0.00139 s⁻¹ and a kon of 2.5e+06 M⁻¹ s⁻¹.

For B15, the Kd turned out to be 0.59 nM, the koff turned out to be 0.001 s⁻¹ and the kon is 1.7e+06 M⁻¹ s⁻¹.

In turn, B16 came in with an equilibrium dissociation constant (Kd) of 1.67 nM, a koff of 0.000975 s⁻¹ and a kon of 584000 M⁻¹ s⁻¹.

As for B17, the dissociation constant (Kd) is 1.98 nM, the koff was determined as 0.000992 s⁻¹ and the kon was found to be 501000 M⁻¹ s⁻¹.

Take B18: the dissociation constant (Kd) amounted to 1.76 nM, the koff amounted to 0.00131 s⁻¹ and the kon was 744000 M⁻¹ s⁻¹.

As to B19, the Kd was found to be 1.54 nM, the off-rate (koff) is 0.00114 s⁻¹ and the on-rate (kon) is 742000 M⁻¹ s⁻¹.

On to B20, for which the Kd is 1.73 nM, the koff amounted to 0.00107 s⁻¹ and the kon came to 618000 M⁻¹ s⁻¹.

In the case of B21, binding was characterised by a dissociation constant (Kd) of 1.74 nM, the koff worked out at 0.000991 s⁻¹ and the kon turned out to be 570000 M⁻¹ s⁻¹.

B22: binding was characterised by a dissociation constant (Kd) of 1.47 nM, the koff is 0.00138 s⁻¹ and the kon worked out at 940000 M⁻¹ s⁻¹.

For the origin of these results see patent US20210284724A1 (I MAB BIOPHARMA US, published 2021).
